The DeepSol protein solubility set

test: soluble on expression in E. coli; label from the status in PepcDB or PDB records

Row | Sequence | soluble on expression in E. coli
1 | MGSDKIHHHHHHMDSSMPSTPHASAYPIGKPGQVWGEEEKSLWLNKQVIQRSYAEQVLALILDPASISANTADPMETTATQSNAHPEITSALELVHYNTLAYNTLHQGASDYPVYLFKSRHWDETKPNVLITGGVHGYETSGVQGAIRFLRTKAQHYCQHANLIIVPCLSPWGYETINRWNPHAIDPNRSFVHDTAPHDTAMTQAKAQASKVQLSDVQEAHALMAALGELAVNFSLHIDLHETTDSDNAEFRPALAARDGTSYDNWDIPDGFYLVGDTLKPQAEFQKAVINAVNAITHIAPAGEHARLIGVPIAQFGVINYPTKALGLCAGMTDATYCTTTEVYPDSPLVDDENCILAQVAAITGALDYVIKNR | not soluble
2 | MSLNRKHETVSEFVRHLPCENCGSSDANSIYTDNHQYCFACEHYVHGDGETPTTGGRTKRMEGLISGEFKPLMKRKLTLETCRKFGYFVSEVRGRLVQVAPYFDNSGVMVAQKLRDQDKGFAILGDGAKLTLFGQNLWASGGKKIVVTEGELDAMSVSQVQNNKWPVVSLPNGAPAARKAIQRNIEYLESFEEVILMFDMDEPGREAAQECAELFSPGKCKIATLSMKDANELLVAGREQEIVTAIWNAKLYRPDGVVNVRDLLEEIRKALVMGLPWFLDPLTQLTYGRRYGEVYGLGAGTGVGKTDFLTQQIAYDIQVLGERVGTIFLEQKPTETAKRVAGKIAGKRFHVPKDTAGWTDEELDAAVDALGENLVMYDAFGETEWDIVKRKVRYMAVSEGIKLIYIDHLTAMADTADEKGSLEQIMKEMAGLANELGIIITFISHLTTPEGKPHEEGGRVTIRHFKGSRAIGFWSYFMFGLERDQQAEDPVVRQTTTFRILKDRCTGQATGEVLYLAYDRDTGLLSLTEAPEPSSPFKDESEGHHHHHH | soluble
3 | MRGSHHHHHHTDPALRASIKNLPADYLLAAQQGDIDKVKTCLALGVDINTCDRQGKTAITLASLYQQYACVQALIDAGADINKQDHTCLNPFLISCLNDDLTLLRIILPAKPDLNCVTRFGGVGLTPACEKGHLSIVKELLAHTEINVNQTNHVGWTPLLEAIVLNDGGIKQQAIVQLLLEHGASPHLTDKYGKTPLELARERGFEEIAQLLIAAGAGLCGR | soluble
4 | MFIPSIYLHQQLHYCKTAILNWSRKMALSRQKFTFERLRRFTLPEGKKQTFLWDADVTTLACRATSGAKAFVFQSVYAGKTLRMTIGNINDWKIDDARAEARRLQTLIDTGIDPRIAKAVKIAEAESLQAESRKTKVTFSVAWEDYLQELRTGISAKTKRPYSTRYIADHINLSSRGGESKKRGQGPTSAGPLASLLNLPLSELTPDYIAAWLSTERQNRPTVTAHAYRLLRAFIKWSNYQKKYQGIIPGDLAQDYNVRKMVPVSASKADDCLQKEQLKSWFSAVRSLNNPIASAYLQVLLLTGARREEIASLRWSDVDFKWSSMRIKDKIEGERIIPLTPYVSELLNVLAQSPNSDVNKEGWVFRSNSKSGKIIEPRSAHNRALVLAELPHISLHGLRRSFGTLAEWVEVPTGIVAQIMGHKPSALAEKHYRRRPLDLLRKWHEKIETWILNEAGITIKNNVDMR | soluble
5 | MSCFVTVGSTLFEDLINQVLCEASLENLKKIGVKKIRLQIGKGNFNQDVIDRVFGETSGDEGSVKCDGLDIDYYRYKPSLSEDMAEALIVIGHGGAGTCLEVLALHLPFITVTNDKLMDNHQAELAVQLSDEGYLLQCTPSTLPETILKENLFSLRQFAAPSKKFVAEHIKQLVGIKNH | not soluble
6 | MGHHHHHHSHMSHIFDASVLAPHIPSNLPDNFKVRPLAKDDFSKGYVDLLSQLTSVGNLDQEAFEKRFEAMRTSVPNYHIVVIEDSNSQKVVASASLVVEMKFIHGAGSRGRVEDVVVDTEMRRQKLGAVLLKTLVSLGKSLGVYKISLECVPELLPFYSQFGFQDDCNFMTQRF | not soluble
7 | MSLGQDEALEKALDMIRNADRIVIGGGAGLSACGGLNYMSLEVLKKEFPALARRGYHTLWEALWDDRRTKQQKIGMMAAEVLWACYDFPVIRAYQDLLRMVEDKDYFVLTSNIDRQFHKAGFEEERIFEPQCSASDLQCQTPCCRDIWDGESVWRKIAANMDRETYACREEDIPRCDRCHAPAVQNMRGIKSFIPDKVMWNRIEFEQYIKEASDLRTVFLELGAGFNSPGVIRHPFQRLAYRYPKAALIRMNQEFPKVPEKIKDRSVEIAGDIGEALAQMRRLYEREGHHHHHH | soluble
8 | MSLKIERLNIIVTCPGRNFVTVKIVTDEGVHGLGDATLNGRELAVRAYLEDHVFPCLIGRDPRDIEDIWQYLYRGAYWRRGPVTMTAIAAIDMALWDIKSKLAGMPVYQLLGGKSREGLMVYGHANGRDHDEAIDAAHRHIAAGYRAIRVQSGVPGLAKVYGVGKTAGAYEPAEKGLPPEEPWDTALYLRHTPELFRKVRDALGDAPHLLHDAHHRLTPIEAARLGRDLEPYRLFWLEDATPAENQDAFRLIRSHTTTTLAVGEVFNSIWDCKDLIRDQLIDYIRATIVHAGGITHVRRIADYAAMYQVRTGFHGATDLSPVCMAAAVNFGLWAPNFGIQELMPHTALTDEVFPHNYRFDDGYLVMDDVPGLGVDIDETLAANYPYERAYLPVARLRDGSMWNWEGHHHHHH | not soluble
9 | MGGHHHHHHGENLYFQGISSETGEMGILWEFDPIINKWIRLSMKLKVERKPFAEGALREAYHTVSLGVGTDENYPLGTTTKLFPPIEMISPISKNNEAMTQLKNGTKFVLKLYKKEAEQQASRELYFEDVKMQMVCRDWGNKFNQKKPPKKIEFLMSWVVELIDRSPSSNGQPILCSIEPLLVGEFKKNNSNYGAVLTNRSTPQAFSHFTYELSNKQMIVVDIQGVDDLYTDPQIHTPDGKGFGLGNLGKAGINKFITTHKCNAVCALLDLDVKLGGVLSGNNKKQLQQGTMVMPDILPELMPSDNT | soluble
10 | MQTFFIAPTDFGVGLTSISLGLVRTLERAGLKVGFFKPIAQPHPGDLGPERSTELMARTHGLKPPKPLGLAHVERMLGDGQLDELLEEIINLYQQAAVGKDVLVVEGMVPTRSASYAARVNLHLAKSLDAEVILVSAPENEVLTELSGRVELQAQLFGGPKDPKVLGVILNKVRTEESMEVFAARLKEHSPLLRNGDFRLLGCIPYRAELNAPRTRDVAELLGAQ | not soluble
11 | GNSIASCADEQPHIGNYRLLKTIGKGNFAKVKLARHILTGREVAIKIIDKTQLNPTSLQKLFREVRIMKILNHPNIVKLFEVIETEKTLYLIMEYASGGEVFDYLVAHGRMKEKEARSKFRQIVSAVQYCHQKRIVHRDLKAENLLLDADMNIKIADFGFSNEFTVGGKLDAFCGAPPYAAPELFQGKKYDGPEVDVWSLGVILYTLVSGSLPFDGQNLKELRERVLRGKYRIPFYMSTDCENLLKRFLVLNPIKRGTLEQIMKDRWINAGHEEDELKPFVEPELDISDQKRIDIMVGMGYSQEEIQESLSKMKYDEITATYLLLGRK | soluble
12 | QVQLVQSGGGLVKPGGSLRLSCAASGFTFSSYAMSWVRQAPGKGLEWVSAISGSGGSTYYADSVKGRFTISRDNSKNTLYLQMSSLRAEDTAVYYCARPYLTYPQRRGPQNVSPFDNWGQGTMVTVSSASTKGPSVFPLAPSSKSTSGGTAALGCLVKDYFPEPVTVSWNSGALTSGVHTFPAVLQSSGLYSLSSVVTVPSSSLGTQTYICNVNHKPSNTKVDKKVEPKSCAAAHHHHHHGAAEQKLISEEDLNGAA | soluble
13 | MNSILICGGAGYIGSHAVKKLVDEGLSVVVVDNLQTGHEDAITEGAKFYNGDLRDKAFLRDVFTQENIEAVMHFAADSLVGVSMEKPLQYYNNNVYGALCLLEVMDEFKVDKFIFSSTAATYGEVDVDLITEETMTNPTNTYGETKLAIEKMLHWYSQASNLRYKIFRYFNVAGATPNGIIGEDHRPETHLIPLVLQVALGQREKIMMFGDDYNTPDGTCIRDYIHVEDLVAAHFLGLKDLQNGGESDFYNLGNGNGFSVKEIVDAVREVTNHEIPAEVAPRRAGDPARLVASSQKAKEKLGWDPRYVNVKTIIEHAWNWHQKQPNGYEK | soluble
14 | MVYNENTPHFYNKSGKETFMSNILFSVFPNENFIDMSLYQFGWEQCQPSHSYGPAARNHYLFHYVISGTGTLMADDTSGITQTYSVKSGQGFMIFPQQITTYIADQKLPWEYVWIEFDGLRVKEILELAGLTKSAPIYHAHSKEMREVLKEEMLYIARNPEQPPFHLIGHLYLFMDALTRSCTREQTNSAGRLRDFYIHEAIAFIEQNFQNDISVEDIAEVCGLNRSYFGKIFKETLGRSPQEFLMNYRMVKATELLKLTQLSISEISNAVGYANPLHFSRAFKNVYGESPRIWRQNHRT | not soluble
15 | MGSDKIHHHHHHMVMEVIKVKYKAFDVGAVSYNTDTQMGSFEYFPSFIKTGIELSPIKMPLAKNIYSFPQLDQNTFKGLPGLIADSLPDDFGNAVMNAWIASQGKSTSDITPLQRLQYTGMRGMGALTYSPATKRKNLNASQPIHIESLVSIAQDVLDKRQQFSVDLENNGQEDKEAMMSLMSVGMSAGGARPKAVLAFNNDLTQVRSGQTDAPEGFTHYLMKFDGVSEHNKNQETFGDPMGYGAMEYTYHILAKECGIDMMPCHLLNEGKRRHFITERFDRNGNDKIHVQTLNGLEHVSYKQIGSYSYAELFNTARKLKLSPDDAMQLFKRMVFNVISRNHDDHAKNFGFMLDKDHKWQLAPAYDLAYSYKPDSHWVSKHWMTLNGKQDNFTRDDFYSFEKLSPIFSKRKIDDVLNQTIEAVSQWDKYAAEHAVPNSLIKEISQNLRLFL | not soluble
16 | MSLKTLAFDTSNKTLSLAILDDETLLADMTLNIQKKHSVSLMPAIDFLMTCTDLKPQDLERIVVAKGPGSYTGLRVAVATAKTLAYSLNIALVGISSLYALAASTCKQYPNTLVVPLIDARRQNAYVGYYRQGKSVMPQAHASLEVIIEQLVEEGQLIFVGETAPFAEKIQKKLPQAILLPTLPSAYECGLLGQSLAPENVDAFVPQYLKRVEAEENWLKDNEIKDDSHYVKRIEGHHHHHH | soluble
17 | MGELANCPKCNALFLKTKLQTVCQACIKEEEKSFETVYKFLRKQENRQSTLSRITEETGVEEELILKFIRQKRIQITHLPNLAYPCERCGTSIREGKFCKACQSDIKDQMDHLNHEDALKIEKENSKKDTYYAYNTKNSLEHHHHHH | soluble
18 | AHHHHHHGSFFLKTKIIEGRGSLEYLQKEAIGFERALILASSSMKRLGFLKEAEDYLREGGVEVISIAGLPPEPTKDVVDEFLPKVREFSPEILIAIGGGSVIDMAKALKVFYDVPGISFEEVAIKSRFSKPRPVPKLKTPLIAIPSTSGAGSEVSAASVIKVGDVKYTIVTPEIAPEVAILDPRLPEGMPPEVARNSGMDVLVHAIEAYVSKASSPFTDAMAVKAAKAVLEHLEESIRGDKNAREKIHYAATMAGIAFLNARLGLVHAMSHKAAWIGPHGLVNAILLPYVMEYNMARRREKYDALARELGFDNAEELLEEIKALNERLGIGPISSYVSEEEFLAKLDEMVERAYEDPLVNFNPVEPRKEDIRRIYERAFYGD | soluble
19 | MAHHHHHHMCLSTCLLYLKQIREDSQYVIISRIDHKTCYKCISFCNLKYFVVDMIYKNEELYTDLEGIEKLLEEYKEKICCVMSATSVYAPRNSDDIIKIAHICKKYNTPHIINNAFGLQCTYICKEIQKCFESQGRVDFVVQSCDKNFLVPVNGGIIFSSNREQMKLLKKSYPGRTPVNAYLDLFITLLEMGKDKIMNLRKERVDNFNWLKEKIQLLCLKYNLELIKTSKNFISMAINLNHMYTHCNTDNPKVINMLGSMLFYRNVTGHRVICSPLLNRNYLLKKAREKYMNMLENKKGNDAMMITSNESNEENVKRDLSKKEADIYDNMYSNGFDEIKSVENDMLQNKSNIIKAYEKQIEEEFDKLNEPNTIVIGNHKFKNFGSSYNSYPISYIAFSCVVGIERPELENFVSKLDNAIDYFIKFFKKKKEEELK | not soluble
